Reference: patent publication US20080148430

T1: Phos32 with serine S21 mutated to alanine
T1 chain: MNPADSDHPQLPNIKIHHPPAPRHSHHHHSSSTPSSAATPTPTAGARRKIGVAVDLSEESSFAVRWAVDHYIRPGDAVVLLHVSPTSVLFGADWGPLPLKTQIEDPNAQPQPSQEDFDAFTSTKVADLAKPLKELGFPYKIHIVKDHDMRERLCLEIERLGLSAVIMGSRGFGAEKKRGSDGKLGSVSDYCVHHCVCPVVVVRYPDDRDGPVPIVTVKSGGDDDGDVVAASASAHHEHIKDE

T2: AtPhos32 (At5g54430)
T2 chain: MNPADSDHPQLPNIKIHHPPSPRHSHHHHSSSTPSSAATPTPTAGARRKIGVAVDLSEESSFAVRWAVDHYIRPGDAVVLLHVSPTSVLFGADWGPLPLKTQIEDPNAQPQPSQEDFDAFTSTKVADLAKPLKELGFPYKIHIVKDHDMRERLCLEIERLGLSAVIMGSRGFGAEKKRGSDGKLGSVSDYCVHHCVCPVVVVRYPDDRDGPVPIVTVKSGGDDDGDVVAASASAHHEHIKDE

T3: GST fusion containing the first 46 amino acids of Phos32
T3 chain: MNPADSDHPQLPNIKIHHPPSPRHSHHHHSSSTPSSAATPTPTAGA

T4: Phos32 with serine S21 mutated to aspartic acid
T4 chain: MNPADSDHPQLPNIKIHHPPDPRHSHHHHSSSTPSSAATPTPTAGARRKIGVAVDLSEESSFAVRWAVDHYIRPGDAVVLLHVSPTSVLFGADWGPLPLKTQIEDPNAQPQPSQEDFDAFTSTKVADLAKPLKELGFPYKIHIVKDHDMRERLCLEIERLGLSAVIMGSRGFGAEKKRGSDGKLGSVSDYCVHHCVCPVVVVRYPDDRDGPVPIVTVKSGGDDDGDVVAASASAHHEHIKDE

T5: AtPhos34 (At4g27320)
T5 chain: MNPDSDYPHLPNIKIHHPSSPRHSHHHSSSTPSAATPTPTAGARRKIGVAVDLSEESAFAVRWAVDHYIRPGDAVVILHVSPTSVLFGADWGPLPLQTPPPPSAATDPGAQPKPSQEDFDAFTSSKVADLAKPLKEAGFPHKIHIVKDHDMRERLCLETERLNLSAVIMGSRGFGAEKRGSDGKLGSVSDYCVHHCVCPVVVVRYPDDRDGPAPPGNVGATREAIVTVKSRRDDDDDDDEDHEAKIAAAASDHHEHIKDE

T6: Myelin Basic Protein (MBP) Bovine P02687
T6 chain: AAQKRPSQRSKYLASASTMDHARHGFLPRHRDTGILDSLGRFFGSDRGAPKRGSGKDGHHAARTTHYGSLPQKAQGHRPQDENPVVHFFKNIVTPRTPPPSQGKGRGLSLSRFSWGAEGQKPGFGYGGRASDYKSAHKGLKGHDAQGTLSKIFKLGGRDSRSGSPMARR


How the values were obtained:
[1] = target: T1, Phos32 with serine S21 mutated to …
AtPhos32 (At5g54430) = target: T2, AtPhos32 (At5g54430)
[2] = target: T3, GST fusion containing the first 46 …
[3] = target: T4, Phos32 with serine S21 mutated to …
AtPhos34 (At4g27320) = target: T5, AtPhos34 (At4g27320)
[4] = target: T6, Myelin Basic Protein (MBP) Bovine P02687

Row | Protein | in vitro kinase assay [1] | in-solution kinase assays with 32P-gammaATP (AtPhos32 (At5g54430)) | in vitro kinase assay [2] | in vitro kinase assay [3] | in-solution kinase assays with 32P-gammaATP (AtPhos34 (At4g27320)) | level of phosphorylation in an in vitro kinase assay (AtPhos32 (At5g54430)) | level of phosphorylation in an in vitro kinase assay [4]
1 | AtMPK6 (protein) MDGGSGQPAADTEMTEAPGGFPAAAPSPQMPGIENIPATLSHGGRFIQYNIFGNIFEVTAKYKPPIMPIGKGAYGIVCSAMNSETNESVAIKKIANAFDNKIDAKRTLREIKLLRHMDHENIVAIRDIIPPPLRNAFNDVYIAYELMDTDLHQIIRSNQALSEEHCQYFLYQILRGLKYIHSANVLHRDLKPSNLLLNANCDLKICDFGLARVTSESDFMTEYVVTRWYRAPELLLNSSDYTAAIDVWSVGCIFMELMDRKPLFPGRDHVHQLRLLMELIGTPSEEELEFLNENAKRYIRQLPPYPRQSITDKFPTVHPLAIDLIEKMLTFDPRRRITVLDALAHPYLNSLHDISDEPECTIPFNFDFENHALSEEQMKELIYREALAFNPEYQQ | mutation of this residue to alanine or aspartic acid abolishes phosphorylation by MAPKs | we found that these proteins are excellent MAP kinase substrates | the first 46 amino acids of Phos32 protein are sufficient for MAP kinase recognition and phosphorylation | mutation of this residue to alanine or aspartic acid abolishes phosphorylation by MAPKs | we found that these proteins are excellent MAP kinase substrates |  | 
2 | AtMPK3 (protein) MNTGGGQYTDFPAVETHGGQFISYDIFGSLFEITSKYRPPIIPIGRGAYGIVCSVLDTETNELVAMKKIANAFDNHMDAKRTLREIKLLRHLDHENIIAIRDVVPPPLRRQFSDVYISTELMDTDLHQIIRSNQSLSEEHCQYFLYQLLRGLKYIHSANIIHRDLKPSNLLLNANCDLKICDFGLARPTSENDFMTEYVVTRWYRAPELLLNSSDYTAAIDVWSVGCIFMELMNRKPLFPGKDHVHQMRLLTELLGTPTESDLGFTHNEDAKRYIRQLPNFPRQPLAKLFSHVNPMAIDLVDRMLTFDPNRRITVEQALNHQYLAKLHDPNDEPICQKPFSFEFEQQPLDEEQIKEMIYQEAIALNPTYG | mutation of this residue to alanine or aspartic acid abolishes phosphorylation by MAPKs | we found that these proteins are excellent MAP kinase substrates | the first 46 amino acids of Phos32 protein are sufficient for MAP kinase recognition and phosphorylation | mutation of this residue to alanine or aspartic acid abolishes phosphorylation by MAPKs | we found that these proteins are excellent MAP kinase substrates | Phos32 is at least as good if not a better substrate than MBP for this MAP Kinase | we used 2 µg of MBP in an in vitro kinase assay with AtMPK3 and compared the level of phosphorylation
